Values belong to the binder of their own block, whether it stands above or below them.
B3: Recombinant His-tag PGRN protein (recombinant human progranulin) (ligand)
chain: TRCPDGQFCPVACCLDPGGASYSCCRPLLDKWPTTLSRHLGGPCQVDAHCSAGHSCIFTVSGTSSCCPFPEAVACGDGHHCCPRGFHCSADGRSCFQRSGNNSVGAIQCPDSQFECPDFSTCCVMVDGSWGCCPMPQASCCEDRVHCCPHGAFCDLVHTRCITPTGTHPLAKKLPAQRTNRAVALSSSVMCPDARSRCPDGSTCCELPSGKYGCCPMPNATCCSDHLHCCPQDTVCDLIQSKCLSKENATTDLLTKLPAHTVGDVKCDMEVSCPDGYTCCRLQSGAWGCCPFTQAVCCEDHIHCCPAGFTCDTQKGTCEQGPHQVPWMEKAPAHLSLPDPQALKRDVPCDNVSSCPSSDTCCQLTSGEWGCCPIPEAVCCSDHQHCCPQGYTCVAEGQCQRGSEIVAGLEKMPARRASLSHPRDIGCDQHTSCPVGQTCCPSLGGSWACCQLPHAVCCEDRQHCCPAGYTCNVKARSCEKEVVSAQPATFLARSPHVGVKDVECGEGHFCHDNQTCCRDNRQGWACCPYRQGVCCADRRHCCPAGFRCAARGTKCLRREAPRWDAPLRDPALRQLL
notes: Coated on the plate in the solid phase assay; analyte (200 nM) in SPR; also called rPGRN; His-tagged PGRN; not shown: His tag
B4: Recombinant GBA (R&D Systems Cat. No. 7410-GH-010) (enzyme, UniProt P04062 40-536, looked up)
chain: ARPCIPKSFGYSSVVCVCNATYCDSFDPPTFPALGTFSRYESTRSGRRMELSMGPIQANHTGTGLLLTLQPEQKFQKVKGFGGAMTDAAALNILALSPPAQNLLLKSYFSEEGIGYNIIRVPMASCDFSIRTYTYADTPDDFQLHNFSLPEEDTKLKIPLIHRALQLAQRPVSLLASPWTSPTWLKTNGAVNGKGSLKGQPGDIYHQTWARYFVKFLDAYAEHKLQFWAVTAENEPSAGLLSGYPFQCLGFTPEHQRDFIARDLGPTLANSTHHNVRLLMLDDQRLLLPHWAKVVLTDPEAAKYVHGIAVHWYLDFLAPAKATLGETHRLFPNTMLFASEACVGSKFWEQSVRLGSWDRGMQYSHSIITNLLYHVVGWTDWNLALNPEGGPNWVRNFVDSPIIVDITKDTFYKQPMFYHLGHFSKFIPEGSQRVGLVASQKNDLDAVALMHPDGSAVVVVLNRSSKDVPLTIKDPAVGFLETISPGYSIHTYLWRRQ
modifications: biotin-labeled (EZ-Link Sulfo-NHS-LC-Biotin) in the solid phase binding assay only
notes: Bought protein; Immobilised on the COOH1 chip in SPR; also called glucocerebrosidase; beta-glucocerebrosidase

Key:
[1] = target: T1, mouse GBA (endogenous, lung tissue) (mouse, UniProt P17439 20-515); assay: co-immunoprecipitation from lung lysate of WT and PGRN KO mice, IP: GBA, IB: LIMP2
T1 construct: Endogenous protein precipitated or detected with anti-GBA antibody; also called glucocerebrosidase
T1 sequence (looked up): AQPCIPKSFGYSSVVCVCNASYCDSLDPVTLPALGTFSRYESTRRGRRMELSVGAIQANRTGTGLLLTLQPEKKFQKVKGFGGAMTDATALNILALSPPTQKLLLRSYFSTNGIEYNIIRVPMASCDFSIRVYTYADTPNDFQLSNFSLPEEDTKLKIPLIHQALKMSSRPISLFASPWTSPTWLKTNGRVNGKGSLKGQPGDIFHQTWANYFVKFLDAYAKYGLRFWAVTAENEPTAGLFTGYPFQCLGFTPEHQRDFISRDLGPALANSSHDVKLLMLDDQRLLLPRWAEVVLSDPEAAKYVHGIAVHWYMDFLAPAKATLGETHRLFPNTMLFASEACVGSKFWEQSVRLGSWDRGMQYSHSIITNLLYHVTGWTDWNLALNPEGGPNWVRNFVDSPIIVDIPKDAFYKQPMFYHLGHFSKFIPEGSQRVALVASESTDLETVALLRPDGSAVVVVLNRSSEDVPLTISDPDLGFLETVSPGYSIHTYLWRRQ

[2] = target: B3; assay: solid phase binding assay: PGRN coated at the concentration on the x axis (µg/ml), biotin-labeled LIMP2 added, streptavidin-HRP, OD 450 nm
Method: (§1) The plate was washed with 0.1% tween/PBS five times and then blocked with 2% BSA/PBS solution. […] Wash with 0.1% tween/PBS, and coated with streptavidin-HRP (1:2000 dilution) solution for 1 hour. After washing add t h e substrate and stop the reaction with 100 μl 2M H₂SO₄. Read result at UV 450 nm in plate reader.

[3] = target: T2, Recombinant sortilin (R&D Systems Cat. No. 3154-ST-050) (UniProt Q99523 78-755); assay: SPR, SensiQ Pioneer, COOH1 chip, Sortilin immobilised, PGRN as analyte (data not shown)
T2 construct: Bought protein; Immobilised on channel 1 of the chip in SPR

[4] = target: B4; assay: solid phase binding assay: PGRN coated at the concentration on the x axis (µg/ml), biotin-labeled GBA added, streptavidin-HRP, OD 450 nm
Method: as §1

[5] = target: B3; assay: SPR (SensiQ Pioneer), GBA immobilised, PGRN injected, running buffer pH 6.5
Method: (§2) All SPR experiments were done by SensiQ Technologies Inc. (Oklahoma City, Okla.) by using SensiQ Pioneer at a controlled analysis temperature of 25° C., and samples in the instrument sample racks were maintained at 18° C. The running buffer throughout the immobilization and the assay consisted of 10 mM HEPES, 150 mM NaCl, 0.005% Tween 20.
(§3) Data was analyzed using the QDat Analysis Software (SensiQ Technologies and BioLogic Software). All data were double referenced to a reference channel (channel 2) and buffer blanks. The average signal of the buffer blanks was used to subtract injection artifacts. Referenced SPR data from the analysis channels were model fit to ascertain ka, kd, and KD for the interactions.

[6] = target: B3; assay: SPR (SensiQ Pioneer), GBA immobilised, PGRN injected, running buffer pH 6.0
Method: as §2, §3

[7] = target: B3; assay: SPR (SensiQ Pioneer), GBA immobilised, PGRN injected, running buffer pH 5.5
Method: as §2, §3

[8] = target: B3; assay: SPR (SensiQ Pioneer), GBA immobilised, PGRN injected, running buffer pH 7.4
Method: as §2, §3

[9] = target: T3, mouse Sortilin (endogenous, lung tissue) (mouse, UniProt Q6PHU5 74-825); assay: co-immunoprecipitation from lung lysate of WT and PGRN KO mice, IP: Sortilin, IB: GLA
T3 construct: Endogenous protein in lung lysate
T3 sequence (Q6PHU5 74-825 limits assumed): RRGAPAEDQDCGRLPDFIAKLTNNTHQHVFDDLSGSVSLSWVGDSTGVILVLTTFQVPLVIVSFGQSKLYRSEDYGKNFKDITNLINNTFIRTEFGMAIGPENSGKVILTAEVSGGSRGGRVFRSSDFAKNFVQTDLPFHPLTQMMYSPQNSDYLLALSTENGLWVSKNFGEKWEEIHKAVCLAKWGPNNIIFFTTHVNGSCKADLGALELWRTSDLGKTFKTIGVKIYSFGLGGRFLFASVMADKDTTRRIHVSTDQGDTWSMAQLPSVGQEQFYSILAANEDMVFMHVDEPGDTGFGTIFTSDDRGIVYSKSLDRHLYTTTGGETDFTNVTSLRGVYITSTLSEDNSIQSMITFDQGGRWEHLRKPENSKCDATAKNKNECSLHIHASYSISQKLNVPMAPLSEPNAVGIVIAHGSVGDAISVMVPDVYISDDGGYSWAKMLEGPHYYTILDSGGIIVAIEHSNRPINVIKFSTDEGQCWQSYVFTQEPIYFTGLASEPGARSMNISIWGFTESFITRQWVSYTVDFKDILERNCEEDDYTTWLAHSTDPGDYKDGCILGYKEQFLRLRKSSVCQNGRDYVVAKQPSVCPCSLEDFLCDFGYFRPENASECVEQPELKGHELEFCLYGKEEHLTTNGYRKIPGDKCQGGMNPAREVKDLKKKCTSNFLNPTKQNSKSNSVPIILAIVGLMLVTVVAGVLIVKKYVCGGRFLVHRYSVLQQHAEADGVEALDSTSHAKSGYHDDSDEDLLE

B1: mouse LIMP2 (endogenous, lung tissue) (receptor, UniProt O35114 1-478, looked up)
chain: MGRCCFYTAGTLSLLLLVTSVTLLVARVFQKAVDQTIEKNMVLQNGTKVFNSWEKPPLPVYIQFYFFNVTNPEEILQGEIPLLEEVGPYTYRELRNKANIQFGENGTTISAVTNKAYVFERNQSVGDPNVDLIRTINIPLLTVVDLAQLTLLRELIEAMLKAYQQKLFVIHTVHELLWGYKDEILSLVHIFKPDVSPNFGLFYERNGTNDGEYVFLTGEDNYLNFSKIVEWNGKTSLDWWTTDTCNMINGTDGDSFHPLISKDEVLYLFPSDLCRSVHITFSSFENVEGLPAFRYKVPAEILANTSENAGFCIPEGNCMDSGVLNISICKNGAPIIMSFPHFYQADEKFVSAIKGMHPNKEEHESFVDINPLTGIILRGAKRFQINTYVRKLDDFVETGDIRTMVFPVMYLNESVLIDKETANQLKSVINTTLVVTNIPYIIMALGVFFGLVFTWLACRGQGSMDEGTADERAPLIRT
notes: Endogenous protein in lung lysate; also called Lysosomal integral membrane protein 2
binding result [1]: binds

Binder: B3
Kd [3]: 3.67 nM | EC50 (read off the curve) [4]: ~1 µg/mL

Binder: B4
Kd [5]: 20.8 nM | Kd [6]: 16.9 nM | Kd [7]: 55 nM | Kd [8]: 0.71 nM

The remaining lines, values ahead:

binding result [2]: no binding (tested: 5 µg/ml)
B2: Recombinant LIMP2 (R&D Systems Cat. No. 1966-LM-050) (receptor, UniProt Q14108 27-432, looked up)
chain: RVFQKAVDQSIEKKIVLRNGTEAFDSWEKPPLPVYTQFYFFNVTNPEEILRGETPRVEEVGPYTYRELRNKANIQFGDNGTTISAVSNKAYVFERDQSVGDPKIDLIRTLNIPVLTVIEWSQVHFLREIIEAMLKAYQQKLFVTHTVDELLWGYKDEILSLIHVFRPDISPYFGLFYEKNGTNDGDYVFLTGEDSYLNFTKIVEWNGKTSLDWWITDKCNMINGTDGDSFHPLITKDEVLYVFPSDFCRSVYITFSDYESVQGLPAFRYKVPAEILANTSDNAGFCIPEGNCLGSGVLNVSICKNGAPIIMSFPHFYQADERFVSAIEGMHPNQEDHETFVDINPLTGIILKAAKRFQINIYVKKLDDFVETGDIRTMVFPVMYLNESVHIDKETASRLKSMINTT
modifications: biotin-labeled (EZ-Link Sulfo-NHS-LC-Biotin)
notes: Bought protein; also called Lysosomal integral membrane protein 2

binding result [9]: binds
B5: mouse alpha-galactosidase A (endogenous, lung tissue) (enzyme, UniProt P51569 32-419, looked up)
chain: LDNGLARTPTMGWLHWERFMCNLDCQEEPDACISEQLFMQMAELMVSDGWRDAGYDYLCIDDCWMAPERDSKGRLQADPQRFPSGIKHLANYVHSKGLKLGIYADVGNKTCAGFPGSFGSYDIDAQTFADWGVDLLKFDGCHCDSVVSLENGYKYMALALNRTGRSIVYSCEWPLYLRPFHKPNYTDIQYYCNHWRNFDDVYDSWESIKNILSWTVVYQKEIVEVAGPGSWNDPDMLVIGNFGLSWDQQVTQMALWAIMAAPLLMSNDLRQISSQAKALLQNKDVIAINQDPLGKQGYCFRKENHIEVWERPLSNLAWAVAVRNLQEIGGPCPYTIQISSLGRGLACNPGCIITQLLPEKVHLGFYEWTLTLKTRVNPSGTVLFRLER
notes: Endogenous protein in lung lysate; also called GLA; alpha-GLA

From US20170049855A1 (NEW YORK UNIVERSITY, published 2017)
